From patent US20130039916A1

Biological target: "Bac-wt" human IL-23 (identical to elastikine in sequence, expressed in SF9 cells) (human) (UniProt P29460)
Experiment: BIAcore SPR, antibody immobilised on CM5 chip, IL-23 in solution

B1: humanized anti-human IL-23p19 antibody 7G10 (antibody, human IgG1, kappa, V domains shown)
VH: QVQLVQSGAEVKKPGASVKVSCKASGYTFTSNVMHWVRQAPGQGLEWMGYINPYNDGTKYNEKFKGRVTMTTDTSTSTAYMELRSLRSDDTAVYYCARNWDVAYWGQGTLVTVSS
VL: DIQMTQSPSSLSASVGDRVTITCRASQSISDYLHWYQQKPGKAPKLLIYYASQSISGVPSRFSGSGSGTDFTLTISSLQPEDFATYYCQNGHSFPFTFGQGTKVEIKR
Kd: 10 nM

B2: humanized anti-human IL-23p19 antibody 6H12 (antibody, human IgG1, kappa, V domains shown)
VH: QVQLVQSGAEVKKPGASVKVSCKASGYTFNRYLIHWVRQAPGQGLEWMGYINPNNAGTNYNEKFKGRVTMTTDTSTSTAYMELRSLRSDDTAVYYCARNWDQAYWGQGTLVTVSS
VL: DIQMTQSPSSLSASVGDRVTITCRASQSISDYLHWYQQKPGKAPKLLIYYTSQSISGVPSRFSGSGSGTDFTLTISSLQPEDFATYYCQNGHSFPFTFGQGTKVEIKR
Kd: 5.1 nM
